The target of test [1] is T1, hCA-IX PG domain fragment #8 (aa 107-121) displayed on yeast as Aga2-HA-CA9-MYC (pPNL6), clone 8 A + B (human, UniProt P32781 19-87 (Saccharomyces cerevisiae entry)).
T1 construct: not shown: HA tag; MYC tag
Briefly: YSD whole yeast cell ELISA, native PG tiling fragment. (In general: ELISA stands for enzyme-linked immunosorbent assay.)

Test [2] addresses T2, hCA-IX PG domain fragment #4 (aa 67-81) displayed on yeast as Aga2-HA-CA9-MYC (pPNL6), clone 4 A + B (human, UniProt P32781 19-87 (Saccharomyces cerevisiae entry)).
T2 construct: not shown: HA tag; MYC tag
Described as above.

Test [3] has as its target T3, hCA-IX PG domain fragment #7 (aa 97-111) displayed on yeast as Aga2-HA-CA9-MYC (pPNL6), clone 7 A + B (human, UniProt P32781 19-87 (Saccharomyces cerevisiae entry)).
T3 construct: not shown: HA tag; MYC tag
Described as above.

The target of test [4] is T4, hCA-IX PG domain fragment #12 (aa 67-111) displayed on yeast as Aga2-HA-CA9-MYC (pPNL6), clone 12 A + B (human, UniProt P32781 19-87 (Saccharomyces cerevisiae entry)).
T4 construct: not shown: HA tag; MYC tag
Described as above.

Test [5] has as its target T5, hCA-IX PG domain fragment #3 (aa 57-71) displayed on yeast as Aga2-HA-CA9-MYC (pPNL6), clone 3 A + B (human, UniProt P32781 19-87 (Saccharomyces cerevisiae entry)).
T5 construct: not shown: HA tag; MYC tag
Described as above.

The target of test [6] is T6, hCA-IX PG domain fragment #9 (aa 117-131) displayed on yeast as Aga2-HA-CA9-MYC (pPNL6), clone 9 A + B (human, UniProt P32781 19-87 (Saccharomyces cerevisiae entry)).
T6 construct: not shown: HA tag; MYC tag
The description is as above.

The target in test [7] is T7, hCA-IX PG domain fragment #5 (aa 77-91) displayed on yeast as Aga2-HA-CA9-MYC (pPNL6), clone 5 A + B (human, UniProt P32781 19-87 (Saccharomyces cerevisiae entry)).
T7 construct: not shown: HA tag; MYC tag
The description is as above.

Test [8] deals with T8, hCA-IX PG domain fragment #10 (aa 126-140) displayed on yeast as Aga2-HA-CA9-MYC (pPNL6), clone 10 A + B (human, UniProt P32781 19-87 (Saccharomyces cerevisiae entry)).
T8 construct: not shown: HA tag; MYC tag
The description is as above.

For test [9], the target named is T9, hCA-IX PG domain fragment #13 (aa 107-140) displayed on yeast as Aga2-HA-CA9-MYC (pPNL6), clone 13 A + B (human, UniProt P32781 19-87 (Saccharomyces cerevisiae entry)).
T9 construct: not shown: HA tag; MYC tag
The description is as above.

Test [10] has as its target T10, hCA-IX PG domain fragment #2 (aa 47-61) displayed on yeast as Aga2-HA-CA9-MYC (pPNL6), clone 2 A + B (human, UniProt P32781 19-87 (Saccharomyces cerevisiae entry)).
T10 construct: not shown: HA tag; MYC tag
The description is as above.

Test [11] deals with T11, hCA-IX PG domain fragment #6 (aa 87-101) displayed on yeast as Aga2-HA-CA9-MYC (pPNL6), clone 6 A + B (human, UniProt P32781 19-87 (Saccharomyces cerevisiae entry)).
T11 construct: not shown: HA tag; MYC tag
The test is described as above.

In test [12] the target is T12, dimeric CA-IX extracellular domain (ECD) from mouse (mouse, UniProt Q8VHB5 32-390).
T12 construct: extracellular domain
The experiment in a line: SPR, antibody captured by anti-human Fc, specific binding yes/no.

Test [13] concerns the target human Carbonic Anhydrase IX (hCA-IX) (human, UniProt Q16790 38-459). Briefly: cell-based or functional assay.
Test [14] deals with T13, human CA-XII extracellular domain (ECD) (human, UniProt O43570 25-301).
T13 construct: extracellular domain
The experiment in a line: SPR, antibody captured by anti-human Fc. Background: In SPR one partner is held on a chip, and binding of the other changes the refractive index at the surface.

The next test has as its target T14, rmCA-IX (murine, UniProt Q8VHB5 32-389, limits assumed).
T14 construct: Bought; construct not described; also called recombinant murine (rm)CA-IX
The experiment in a line: SPR, antibody captured by anti-human Fc.

Another test addresses T15, rhCA-XIV (human, UniProt Q9ULX7 16-290, limits assumed).
T15 construct: Bought; construct not described; also called recombinant human CA-XIV
Briefly: SPR, antibody captured by anti-human Fc.

A further test has as its target T16, rhCA-XII (human, UniProt O43570 25-291, limits assumed).
T16 construct: Bought; construct not described; also called recombinant human CA-XII (Sino Biologics)
Briefly: SPR, antibody captured by anti-human Fc.

In the next test the target is T17, rhCA-IV (human, UniProt P22748 19-283, limits assumed).
T17 construct: Bought; construct not described; also called recombinant human CA-IV
The experiment in a line: SPR, antibody captured by anti-human Fc.

In test [15] the target is hCA-IX fragment 8 (aa 38-414, +PG+CA+) displayed on yeast as Aga2-HA-CA9-MYC (pPNL6), clone 8B (human, UniProt P32781 19-87; Q16790 38-414). Briefly: YSD whole yeast cell ELISA, heat-denatured (80 C, 30 min), normalised to anti-MYC.
Test [16] has as its target T18, hCA-IX PG domain fragment #14 (aa 37-140) displayed on yeast as Aga2-HA-CA9-MYC (pPNL6), clone 14 A + B (human, UniProt P32781 19-87 (Saccharomyces cerevisiae entry)).
T18 construct: not shown: HA tag; MYC tag
Briefly: YSD whole yeast cell ELISA, native PG tiling fragment, normalised to anti-MYC.

The target of test [17] is T19, hCA-IX PG domain fragment #11 (aa 37-71) displayed on yeast as Aga2-HA-CA9-MYC (pPNL6), clone 11 A + B (human, UniProt P32781 19-87 (Saccharomyces cerevisiae entry)).
T19 construct: not shown: HA tag; MYC tag
The description is as above.

Test [18] concerns the target T20, hCA-IX PG domain fragment #1 (aa 37-51) displayed on yeast as Aga2-HA-CA9-MYC (pPNL6), clone 1 A + B (human, UniProt P32781 19-87 (Saccharomyces cerevisiae entry)).
T20 construct: not shown: HA tag; MYC tag
The description is as above.

The target of test [19] is T21, hCA-IX fragment 2 (aa 38-136, +PG+) displayed on yeast as Aga2-HA-CA9-MYC (pPNL6), clone 2B (human, UniProt P32781 19-87; Q16790 38-136).
T21 construct: not shown: HA tag; MYC tag
The experiment in a line: YSD whole yeast cell ELISA, native, normalised to anti-MYC.

Test [20] has as its target T22, rhCA-IX ECD dimer (human, UniProt Q16790 38-414). The experiment in a line: SPR (ProteOn XPR36), antibody captured by anti-human Fc, 0.74-60 nM antigen flowed, 1:1 model, 25 C.
Test [21] concerns the target T23, rhCA-IX ECD mixture (monomer + dimer) (human, UniProt Q16790 38-414). Briefly: SPR (ProteOn XPR36), mAb captured by anti-mouse Fc, 60 nM antigen flowed, 1:1 model, 25 C.
Test [22] concerns the target T22, rhCA-IX ECD dimer. The test is described as above.
The target of test [23] is T23, rhCA-IX ECD mixture (monomer + dimer). Briefly: reverse phase protein array, purified antigen; RPPA; ratio native/denatured, purified antigen.

By Kd is commonly meant a measure of binding affinity in units of concentration. A lower Kd goes with higher affinity. A word on the koff: it is a measure of how fast the partners let go of each other.

T12 sequence (Q8VHB5 32-390): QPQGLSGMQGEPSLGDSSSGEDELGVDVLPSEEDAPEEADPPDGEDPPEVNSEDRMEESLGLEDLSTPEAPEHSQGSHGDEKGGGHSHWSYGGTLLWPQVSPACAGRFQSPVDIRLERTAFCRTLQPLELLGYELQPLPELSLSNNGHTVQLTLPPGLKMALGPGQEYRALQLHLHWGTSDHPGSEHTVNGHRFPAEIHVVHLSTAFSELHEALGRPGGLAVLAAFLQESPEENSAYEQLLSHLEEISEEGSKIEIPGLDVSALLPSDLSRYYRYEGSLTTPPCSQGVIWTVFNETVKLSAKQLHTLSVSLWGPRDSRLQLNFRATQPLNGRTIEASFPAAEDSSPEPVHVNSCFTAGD
T14 sequence (Q8VHB5 32-389 limits assumed): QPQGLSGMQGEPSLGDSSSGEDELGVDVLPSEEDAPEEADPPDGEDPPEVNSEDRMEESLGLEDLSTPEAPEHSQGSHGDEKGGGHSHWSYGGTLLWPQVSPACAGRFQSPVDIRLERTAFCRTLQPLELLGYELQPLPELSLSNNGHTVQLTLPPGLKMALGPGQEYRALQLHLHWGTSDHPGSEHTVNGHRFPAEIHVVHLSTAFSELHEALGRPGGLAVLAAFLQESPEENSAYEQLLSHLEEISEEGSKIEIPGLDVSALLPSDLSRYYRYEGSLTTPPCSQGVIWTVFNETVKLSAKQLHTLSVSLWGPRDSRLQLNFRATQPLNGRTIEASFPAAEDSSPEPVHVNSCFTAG
T6 sequence (P32781 19-87 limits assumed): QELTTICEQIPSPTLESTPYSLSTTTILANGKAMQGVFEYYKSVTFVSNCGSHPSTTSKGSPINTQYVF
T21 sequence (P32781 19-87 limits assumed, chain 1 of 2, other chains not shown): as the sequence (P32781 19-87 limits assumed) above
Chain of hCA-IX fragment 8 (aa 38-414, +PG+CA+) displayed on yeast as Aga2-HA-CA9-MYC (pPNL6), clone 8B (P32781 19-87 limits assumed, chain 1 of 2, other chains not shown): as the sequence (P32781 19-87 limits assumed) above
T8 sequence (P32781 19-87 limits assumed): as above
T1 sequence (P32781 19-87 limits assumed): as above
T4 sequence (P32781 19-87 limits assumed, chain 1 of 2): as the sequence (P32781 19-87 limits assumed) above
T4 sequence (chain (part 2 of 2), as listed by the source limits assumed, chain 2 of 2): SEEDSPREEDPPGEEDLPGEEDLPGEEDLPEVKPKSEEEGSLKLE
T20 sequence (P32781 19-87 limits assumed): as the sequence (P32781 19-87 limits assumed) above
T19 sequence (P32781 19-87 limits assumed, chain 1 of 2): as the sequence (P32781 19-87 limits assumed) above
T19 sequence (chain (part 2 of 2), as listed by the source limits assumed, chain 2 of 2): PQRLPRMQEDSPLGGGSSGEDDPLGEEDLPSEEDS
T11 sequence (P32781 19-87 limits assumed): as the sequence (P32781 19-87 limits assumed) above
T5 sequence (P32781 19-87 limits assumed): as above
T2 sequence (P32781 19-87 limits assumed): as above
T10 sequence (P32781 19-87 limits assumed): as above
T18 sequence (P32781 19-87 limits assumed, chain 1 of 2): as the sequence (P32781 19-87 limits assumed) above
T18 sequence (chain (part 2 of 2), as listed by the source limits assumed, chain 2 of 2): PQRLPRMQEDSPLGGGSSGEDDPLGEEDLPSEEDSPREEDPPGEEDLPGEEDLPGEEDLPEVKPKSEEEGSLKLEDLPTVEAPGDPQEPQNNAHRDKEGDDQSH
T7 sequence (P32781 19-87 limits assumed): as the sequence (P32781 19-87 limits assumed) above
T3 sequence (P32781 19-87 limits assumed): as above
T9 sequence (P32781 19-87 limits assumed, chain 1 of 2): as the sequence (P32781 19-87 limits assumed) above
T9 sequence (chain (part 2 of 2), as listed by the source limits assumed, chain 2 of 2): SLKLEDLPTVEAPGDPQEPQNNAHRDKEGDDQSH
T16 sequence (O43570 25-291 limits assumed): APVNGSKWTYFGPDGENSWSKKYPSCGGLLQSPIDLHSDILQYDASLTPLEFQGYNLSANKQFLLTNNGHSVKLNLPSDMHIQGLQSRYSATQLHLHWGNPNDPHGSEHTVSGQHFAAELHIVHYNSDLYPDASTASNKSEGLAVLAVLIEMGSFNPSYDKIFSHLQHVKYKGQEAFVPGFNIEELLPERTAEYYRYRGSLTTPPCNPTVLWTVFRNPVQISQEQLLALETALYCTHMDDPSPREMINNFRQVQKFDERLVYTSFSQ
T15 sequence (Q9ULX7 16-290 limits assumed): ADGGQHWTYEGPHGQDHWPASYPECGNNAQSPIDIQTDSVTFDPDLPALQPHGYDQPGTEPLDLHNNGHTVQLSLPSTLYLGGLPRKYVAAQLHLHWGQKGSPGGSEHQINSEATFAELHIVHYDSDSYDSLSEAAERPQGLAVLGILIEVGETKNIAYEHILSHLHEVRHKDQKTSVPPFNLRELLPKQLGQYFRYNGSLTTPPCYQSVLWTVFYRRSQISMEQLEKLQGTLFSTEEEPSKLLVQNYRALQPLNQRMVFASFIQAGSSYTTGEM
T13 sequence (O43570 25-301): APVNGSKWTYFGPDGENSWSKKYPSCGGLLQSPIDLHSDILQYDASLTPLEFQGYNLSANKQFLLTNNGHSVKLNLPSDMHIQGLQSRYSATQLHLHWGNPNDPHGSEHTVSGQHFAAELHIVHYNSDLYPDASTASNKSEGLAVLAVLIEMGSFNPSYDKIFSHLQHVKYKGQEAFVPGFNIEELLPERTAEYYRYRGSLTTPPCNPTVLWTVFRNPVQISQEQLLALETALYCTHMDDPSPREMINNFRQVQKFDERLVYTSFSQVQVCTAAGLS
T17 sequence (P22748 19-283 limits assumed): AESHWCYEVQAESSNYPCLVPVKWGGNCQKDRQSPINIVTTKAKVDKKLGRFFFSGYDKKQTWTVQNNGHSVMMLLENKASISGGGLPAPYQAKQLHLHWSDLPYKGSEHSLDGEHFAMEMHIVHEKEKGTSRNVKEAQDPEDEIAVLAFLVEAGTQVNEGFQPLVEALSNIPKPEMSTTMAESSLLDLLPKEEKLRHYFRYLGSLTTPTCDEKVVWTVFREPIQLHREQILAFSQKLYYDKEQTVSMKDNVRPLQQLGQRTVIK

B1: c12H8 (chimeric 12H8, human IgG1 / human kappa 1) (antibody, V domains shown)
VH: QIQLVQSGPELKKPGETVKISCKASGYTFTNYGMNWVQQAPGKGLKWMGWINTYTGEPTYADDFKGRFAFSLETSASTAYLQINNLKNEDMATYFCARGGIATPTSYWGQGTTLTVSS
VL: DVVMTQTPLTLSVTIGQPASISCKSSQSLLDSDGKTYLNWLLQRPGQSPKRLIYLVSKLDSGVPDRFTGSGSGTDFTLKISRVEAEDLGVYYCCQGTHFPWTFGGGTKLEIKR
notes: Expressed in CHO cells
Take B1: the binding result in test [1], in [2], in [3], in [4], in test [5] and in test [6] was “no binding” throughout. Further, the binding result in [7], in test [8], in test [9], in test [10], in [11] and in test [12] was “no binding” in each case. Besides, the binding result in test [14] is “no binding (tested: 100 nM)”; with rmCA-IX, “no binding (tested: 100 nM)”; with rhCA-XIV, “no binding (tested: 100 nM)”; in the test with rhCA-XII, “no binding (tested: 100 nM)”; in the test with rhCA-IV, “no binding (tested: 100 nM)”; in test [15], “binds”. In addition, the binding result in test [16], in [17], in [18] and in test [19] was “binds” each time. Besides, the “IC50 (nM), cell viability of sk-rc-52 cells, surrogate ADC assay (Mab-Zap saporin secondary antibody)” value in test [13] is 23.6 nM. Further, in the test with rhCA-IX ECD dimer [20], the equilibrium dissociation constant (Kd) came out at 0.979 nM.

B2: mAb 12H8 (hybridoma-derived) (antibody, mouse IgG1, V domains shown)
VH: QIQLVQSGPELKKPGETVKISCKASGYTFTNYGMNWVQQAPGKGLKWMGWINTYTGEPTYADDFKGRFAFSLETSASTAYLQINNLKNEDMATYFCARGGIATPTSYWGQGTTLTVSS
VL: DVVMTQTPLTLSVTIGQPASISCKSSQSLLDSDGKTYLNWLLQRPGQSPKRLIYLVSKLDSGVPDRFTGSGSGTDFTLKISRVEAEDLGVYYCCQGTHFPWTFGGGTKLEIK
notes: also called clone 12H8 (fusion F101); 12HD8
As for B2, the koff in test [21] was < 1e-05 s⁻¹. The molecule also yielded a Kd in the test with rhCA-IX ECD dimer [22] of 0.143 nM. For the same molecule, in [23], the “Ratio (A)/(B), native over denatured” value was determined as 1.11.

B3: c12H8-DM1 (antibody, V domains shown)
VH: QIQLVQSGPELKKPGETVKISCKASGYTFTNYGMNWVQQAPGKGLKWMGWINTYTGEPTYADDFKGRFAFSLETSASTAYLQINNLKNEDMATYFCARGGIATPTSYWGQGTTLTVSS
VL: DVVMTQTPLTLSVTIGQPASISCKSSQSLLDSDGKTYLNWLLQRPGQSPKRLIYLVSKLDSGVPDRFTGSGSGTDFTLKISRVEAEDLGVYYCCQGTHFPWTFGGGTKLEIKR
modifications: DM1 (mertansine) conjugated with SMCC-DM1, target DAR 3.5; sites not stated
For the molecule B3, the “IC50 (nM), cell viability of sk-rc-52 cells, ADC assay” value in test [13] came out at 17.9 nM.
